# Experimental data as given in patent US20160002338A1 (Hoffmann-La Roche, published 2016).
# B1: anti-HER3/HER4 antibody M-05-74 (antibody, V domains shown)
# VH: QVQLQQSGAELAKPGASVKMSCKTSGYTLTDYWIHWVKQRPGQGLEWIGYINPYTGYTESNQKFKDKATLTADKSSNTAYIQLSSLTSEDSAVYYCARPYYYGDYWGQGTTLTVSS
# VL: QIVLTQSPAIMSASPGERVTITCSASSSVSYMHWFQQKPGTSPKLLIYSTSNLASGVPARFSGSGSGTSYSLTISRMEAEDAATYYCQQRSSYPFTFGSGTKLEIK
# notes: murine monoclonal antibody from hybridoma (supernatant or purified); also called M-074; M-5-74
# Columns and labels:
# [1] = target: T1, human recombinant HER3 ECD (human, UniProt P21860 20-643); experiment: SPR Biacore 3000, 37 C
# T1 construct: 68 kDa; also called human-Her3-ECD; full length Her3 ECD
# HER4 ECD-HRG complex = target: T2, HER4 ECD-HRG complex (human, UniProt Q15303 26-651); experiment: SPR Biacore 3000, 37 C
# T2 construct: HER4 ECD preincubated with a 5-fold molar excess of Heregulin; also called HER-4-ECD-RG
# T2 sequence 1: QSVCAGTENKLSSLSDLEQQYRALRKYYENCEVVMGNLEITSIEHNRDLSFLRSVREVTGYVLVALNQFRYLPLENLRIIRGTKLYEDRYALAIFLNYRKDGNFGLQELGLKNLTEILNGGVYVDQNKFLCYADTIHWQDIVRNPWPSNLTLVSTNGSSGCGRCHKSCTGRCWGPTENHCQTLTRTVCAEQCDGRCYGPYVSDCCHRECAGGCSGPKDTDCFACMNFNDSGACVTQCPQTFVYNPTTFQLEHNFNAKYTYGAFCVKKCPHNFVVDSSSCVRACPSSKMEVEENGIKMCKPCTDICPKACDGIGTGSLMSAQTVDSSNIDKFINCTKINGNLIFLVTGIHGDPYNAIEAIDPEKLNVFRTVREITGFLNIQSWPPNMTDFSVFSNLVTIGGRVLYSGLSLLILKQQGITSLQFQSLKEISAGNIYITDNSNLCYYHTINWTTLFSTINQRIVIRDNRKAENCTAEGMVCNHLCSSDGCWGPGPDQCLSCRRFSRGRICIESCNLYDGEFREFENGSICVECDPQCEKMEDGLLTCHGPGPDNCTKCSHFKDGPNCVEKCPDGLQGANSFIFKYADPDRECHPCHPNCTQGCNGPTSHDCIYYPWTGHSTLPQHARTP
# T2 sequence 2: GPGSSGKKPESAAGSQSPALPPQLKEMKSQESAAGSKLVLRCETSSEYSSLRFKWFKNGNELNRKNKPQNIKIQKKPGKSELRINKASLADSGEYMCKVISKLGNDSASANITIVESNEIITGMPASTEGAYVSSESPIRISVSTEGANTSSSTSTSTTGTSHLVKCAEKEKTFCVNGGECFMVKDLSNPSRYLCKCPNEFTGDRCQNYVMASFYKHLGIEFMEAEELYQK
# HER3 ECD-HRG complex = target: T3, HER3 ECD-HRG complex (human, UniProt P21860 20-643); experiment: SPR Biacore 3000, 37 C
# T3 construct: also called Heregulin/Her-3 ECD
# [2] = target: T4, HER3 ECD binding epitope peptide VYNKLTFQLEP (human); experiment: CelluSpots peptide array, 1 µg/mL antibody
# T4 construct: the spotted peptides were longer
# T4 peptide: VYNKLTFQLEP
# [3] = target: T5, HER4 ECD binding epitope peptide VYNPTTFQLE (human); experiment: CelluSpots peptide array, 1 µg/mL antibody
# T5 construct: the spotted peptides were longer
# T5 peptide: VYNPTTFQLE
# TtSlyD-FKBP-Her3 = target: T6, TtSlyD-FKBP-Her3; experiment: SPR Biacore 4000, antibody captured, antigen 150 nM, 25 C
# T6 construct: 15 kDa; N-terminal Met may be present or not; also called Thermus thermophilus SlyD FKBP-Her3; thermo SlyD-Her3
# T6 chain: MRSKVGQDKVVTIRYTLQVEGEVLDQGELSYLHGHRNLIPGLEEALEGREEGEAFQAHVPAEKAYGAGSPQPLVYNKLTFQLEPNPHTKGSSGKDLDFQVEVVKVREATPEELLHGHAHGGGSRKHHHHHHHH
# Experimental: (§1) In all assay the test antibodies were captured. The system was under the control of the software version V1.1. The instrument buffer was HBS-EP (10 mM HEPES (pH 7.4), 150 mM NaCl, 1 mM EDTA, 0.05% (w/v) P20). The system operated at 25° C. 30 μg/ml Rabbit polyclonal antibody (RAM IgG, (Rabbit anti Mouse IgG with Fc gamma specificity) GE Healthcare) in 10 mM sodium acetate buffer (pH 4.5) was immobilized using EDC/NHS chemistry according to the manufacturer's instructions on the spots 1, 2, 4 and 5 in the flow cells 1, 2, 3 and 4. The sensor was saturated using 1M ethanolamine. In each flow cell, referenced signals were calculated using spots 1-2 and spots 5-4, spot 3 served as a blanc control. […] The antibody capture level (CL) in response units was monitored. […] Thereafter, the antibody-antigen complex dissociation signal was recorded for 5 min. […] The recorded signal shortly before the end of the injection of the antigen was denoted as binding late (BL) in response units. The recorded signal shortly before the end of the recording of the dissociation is denoted as stability late (SL) in response units. The dissociation rate constants were determined calculated The antibody-antigen complex stability in minutes was calculated with the following formula: ln(2)/60*kd. The Molar Ratio was calculated with the formula: MW (antibody)/MW(antigen)*BL (antigen)/CL (antibody). […]
# [4] = target: T1, human recombinant HER3 ECD; experiment: as above
# Experimental: as §1
# human HER1 ECD = human HER1 ECD (human, UniProt P00533 25-645); experiment: SPR Biacore T200, antibody captured, 25 C
# Experimental: (§2) A Biacore T200 instrument (GE Healthcare) was mounted with a CM5 series sensor. The sensor was normalized in HBS-ET buffer (10 mM HEPES pH 7.4, 150 mM NaCl, 3 mM EDTA, 0.05% w/v Tween 20) according to the manufacturer's instructions. The sample buffer was the system buffer supplemented with 1 mg/ml CMD (Carboxymethyldextran, Sigma #86524). The system operated at 25° C. 6500 RU RAM-Fey (relative units of Fey-fragment RamIgG, GE Healthcare) were immobilized according to the manufacturer's instructions using amine coupling EDC/NHS chemistry on all four flow cells. The sensor was deactivated using 1M ethanolamine. […] Concentration dependent kinetics were measured. […] All analytes were injected for 5 min association time and 10 min dissociation time at 100 μl/min flow rate. The sensor capture system was regenerated by a 3 min injection at 10 μl/min of 10 mM glycine pH 1.7. Where possible kinetic data was evaluated using the Biacore T200 evaluation software.
# TtSlyDcys-Her3 = target: T7, TtSlyDcys-Her3; experiment: SPR Biacore T200, antibody captured, 25 C
# T7 chain: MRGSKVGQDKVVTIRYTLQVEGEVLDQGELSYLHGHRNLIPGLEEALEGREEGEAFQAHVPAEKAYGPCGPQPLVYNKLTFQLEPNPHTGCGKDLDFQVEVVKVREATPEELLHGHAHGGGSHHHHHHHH
# Experimental: as §2
# T1 sequence (P21860 20-643): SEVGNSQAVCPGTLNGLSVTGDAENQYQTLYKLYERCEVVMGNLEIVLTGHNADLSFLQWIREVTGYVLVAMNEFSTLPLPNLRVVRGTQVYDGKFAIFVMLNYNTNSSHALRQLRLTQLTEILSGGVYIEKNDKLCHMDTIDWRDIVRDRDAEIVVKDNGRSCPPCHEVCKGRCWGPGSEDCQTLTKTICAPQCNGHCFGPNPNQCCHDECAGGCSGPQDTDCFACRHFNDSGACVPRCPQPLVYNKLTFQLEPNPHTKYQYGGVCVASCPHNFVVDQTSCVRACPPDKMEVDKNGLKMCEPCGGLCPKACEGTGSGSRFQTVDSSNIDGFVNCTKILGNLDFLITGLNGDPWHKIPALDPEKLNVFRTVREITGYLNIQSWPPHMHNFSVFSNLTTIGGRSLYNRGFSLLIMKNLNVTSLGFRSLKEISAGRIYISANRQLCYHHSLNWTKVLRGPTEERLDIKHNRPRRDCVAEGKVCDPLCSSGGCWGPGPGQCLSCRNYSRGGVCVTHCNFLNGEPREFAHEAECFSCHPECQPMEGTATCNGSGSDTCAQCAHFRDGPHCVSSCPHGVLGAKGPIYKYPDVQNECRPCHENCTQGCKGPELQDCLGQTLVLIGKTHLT
# T3 sequence (P21860 20-643 limits assumed, one chain of several): as the sequence (P21860 20-643) above
binder,measurement,setting,value
B1,Molar Ratio MR,[1],0.6
same,Molar Ratio MR,HER4 ECD-HRG complex,0.9
same,Molar Ratio MR,HER3 ECD-HRG complex,0.7
same,binding result,[2],binds
same,binding result,[3],binds
same,Molar Ratio MR,TtSlyD-FKBP-Her3,1.1
same,Molar Ratio MR,[4],0.5
same,binding result,human HER1 ECD,no binding (tested: 90 nM)
same,Molar Ratio MR,TtSlyDcys-Her3,1.9
